According to the supplement of paper PMC9112550, “Optimization of the antimicrobial peptide Bac7 by deep mutational scanning” (BMC Biology, 2022):

Test system: Escherichia coli TOP10
Test: shrunken log2 fold change of peptide-encoding DNA abundance (4.5 h post-induction vs induction); higher = less antimicrobial activity (less host growth inhibition)
Conditions: time post-induction: 4.5 h; library: site-saturation at positions 5, 18, 19, 20
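Also: peptides expressed intracellularly from a pBAD plasmid library in pooled LB shake-flask culture, induced with 0.3% L-arabinose, DNA abundance read by NGS, three biological replicates, DESeq2 with apeglm shrinkage.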

Sequence	shrunken log2 fold change
RRIRDRPPRLPRPRPRPQSLPRP	-0.0208
RRIRDRPPRLPRPRPRPQSWPRP	-0.0644
RRIRDRPPRLPRPRPRPQTIPRP	-0.164
RRIRDRPPRLPRPRPRPQTTPRP	0.0462
RRIRDRPPRLPRPRPRPQVNPRP	-0.182
RRIRDRPPRLPRPRPRPQVWPRP	0.0447
RRIRDRPPRLPRPRPRPQWAPRP	0.326
RRIRDRPPRLPRPRPRPQWMPRP	-0.176
RRIRDRPPRLPRPRPRPQYNPRP	-0.446
RRIRDRPPRLPRPRPRPQYPPRP	-0.219
RRIRDRPPRLPRPRPRPRARPRP	0.601
RRIRDRPPRLPRPRPRPRATPRP	0.614
RRIRDRPPRLPRPRPRPRCMPRP	-0.158
RRIRDRPPRLPRPRPRPRCWPRP	0.923
RRIRDRPPRLPRPRPRPRDCPRP	0.0952
RRIRDRPPRLPRPRPRPRDDPRP	-0.0224
RRIRDRPPRLPRPRPRPRDGPRP	0.81
RRIRDRPPRLPRPRPRPRDPPRP	2.7
RRIRDRPPRLPRPRPRPRILPRP	-0.116
RRIRDRPPRLPRPRPRPRKMPRP	0.154
RRIRDRPPRLPRPRPRPRMFPRP	-0.0535
RRIRDRPPRLPRPRPRPRMWPRP	0.0802

Sequence	shrunken log2 fold change
RRIRDRPPRLPRPRPRPRNGPRP	0.0517
RRIRDRPPRLPRPRPRPRNIPRP	-0.0463
RRIRDRPPRLPRPRPRPRNNPRP	-0.196
RRIRDRPPRLPRPRPRPRQEPRP	0.0935
RRIRDRPPRLPRPRPRPRQNPRP	0.00972
RRIRDRPPRLPRPRPRPRQQPRP	0.388
RRIRDRPPRLPRPRPRPRRKPRP	0.233
RRIRDRPPRLPRPRPRPRSHPRP	-0.0765
RRIRDRPPRLPRPRPRPRSMPRP	0.211
RRIRDRPPRLPRPRPRPRTDPRP	0.0936
RRIRDRPPRLPRPRPRPRVAPRP	0.729
RRIRDRPPRLPRPRPRPRWGPRP	0.471
RRIRDRPPRLPRPRPRPRWNPRP	0.0976
RRIRDRPPRLPRPRPRPRYAPRP	0.215
RRIRDRPPRLPRPRPRPSAKPRP	0.23
RRIRDRPPRLPRPRPRPSARPRP	0.465
RRIRDRPPRLPRPRPRPSCRPRP	-0.0363
RRIRDRPPRLPRPRPRPSDMPRP	-0.307
RRIRDRPPRLPRPRPRPSDSPRP	-0.0584
RRIRDRPPRLPRPRPRPSENPRP	-0.0386
RRIRDRPPRLPRPRPRPSGHPRP	1.17
RRIRDRPPRLPRPRPRPSGIPRP	-0.0212

Sequence	shrunken log2 fold change
RRIRDRPPRLPRPRPRPSGVPRP	0.119
RRIRDRPPRLPRPRPRPSHIPRP	-1.15
RRIRDRPPRLPRPRPRPSIIPRP	-0.266
RRIRDRPPRLPRPRPRPSKGPRP	-0.0731
RRIRDRPPRLPRPRPRPSLHPRP	0.0986
RRIRDRPPRLPRPRPRPSLVPRP	-0.0908
RRIRDRPPRLPRPRPRPSMEPRP	0.0308
RRIRDRPPRLPRPRPRPSMVPRP	-0.24
RRIRDRPPRLPRPRPRPSNCPRP	-0.576
RRIRDRPPRLPRPRPRPSPRPRP	0.00292
RRIRDRPPRLPRPRPRPSQHPRP	-0.343
RRIRDRPPRLPRPRPRPSQRPRP	-0.0409
RRIRDRPPRLPRPRPRPSRVPRP	0.0593
RRIRDRPPRLPRPRPRPSTHPRP	-0.247
RRIRDRPPRLPRPRPRPSTLPRP	-0.267
RRIRDRPPRLPRPRPRPSTVPRP	0.154
RRIRDRPPRLPRPRPRPSWHPRP	-0.0852
RRIRDRPPRLPRPRPRPSYTPRP	-0.302
RRIRDRPPRLPRPRPRPTCQPRP	1.08
RRIRDRPPRLPRPRPRPTDCPRP	0.00372
RRIRDRPPRLPRPRPRPTDFPRP	-0.0352
RRIRDRPPRLPRPRPRPTDGPRP	-0.107

Sequence	shrunken log2 fold change
RRIRDRPPRLPRPRPRPTDTPRP	0.146
RRIRDRPPRLPRPRPRPTFKPRP	-0.0434
RRIRDRPPRLPRPRPRPTGCPRP	0.247
RRIRDRPPRLPRPRPRPTGDPRP	0.209
RRIRDRPPRLPRPRPRPTGGPRP	0.166
RRIRDRPPRLPRPRPRPTGLPRP	-0.000418
RRIRDRPPRLPRPRPRPTGYPRP	0.0485
RRIRDRPPRLPRPRPRPTHQPRP	0.0642
RRIRDRPPRLPRPRPRPTIIPRP	-0.127
RRIRDRPPRLPRPRPRPTIWPRP	-0.0201
RRIRDRPPRLPRPRPRPTIYPRP	0.0468
RRIRDRPPRLPRPRPRPTKWPRP	0.0286
RRIRDRPPRLPRPRPRPTLNPRP	0.171
RRIRDRPPRLPRPRPRPTLVPRP	0.196
RRIRDRPPRLPRPRPRPTMDPRP	-0.0444
RRIRDRPPRLPRPRPRPTNQPRP	-0.00895
RRIRDRPPRLPRPRPRPTNVPRP	-0.138
RRIRDRPPRLPRPRPRPTPCPRP	0.25
RRIRDRPPRLPRPRPRPTPKPRP	0.346
RRIRDRPPRLPRPRPRPTPQPRP	0.0786
RRIRDRPPRLPRPRPRPTQPPRP	0.0164
RRIRDRPPRLPRPRPRPTREPRP	1.46

Sequence	shrunken log2 fold change
RRIRDRPPRLPRPRPRPTRMPRP	0.154
RRIRDRPPRLPRPRPRPTSFPRP	-0.0323
RRIRDRPPRLPRPRPRPTSPPRP	-0.267
RRIRDRPPRLPRPRPRPTTNPRP	0.411
RRIRDRPPRLPRPRPRPTWKPRP	0.0856
RRIRDRPPRLPRPRPRPTWWPRP	0.433
RRIRDRPPRLPRPRPRPTYHPRP	-0.0146
RRIRDRPPRLPRPRPRPTYLPRP	0.00451
RRIRDRPPRLPRPRPRPTYMPRP	-0.248
RRIRDRPPRLPRPRPRPVASPRP	0.0264
RRIRDRPPRLPRPRPRPVCAPRP	1.12
RRIRDRPPRLPRPRPRPVDRPRP	0.358
RRIRDRPPRLPRPRPRPVEIPRP	-0.0399
RRIRDRPPRLPRPRPRPVESPRP	-0.373
RRIRDRPPRLPRPRPRPVETPRP	0.222
RRIRDRPPRLPRPRPRPVGYPRP	0.0934
RRIRDRPPRLPRPRPRPVIEPRP	0.662
RRIRDRPPRLPRPRPRPVIKPRP	0.0149
RRIRDRPPRLPRPRPRPVKDPRP	-0.173
RRIRDRPPRLPRPRPRPVLMPRP	-0.134
RRIRDRPPRLPRPRPRPVNMPRP	-0.296
